Measurements from patent publication EP4596580A1 (Staidson (Beijing) Biopharmaceuticals Co., Ltd., dated 2025).
Like-named read-outs stand apart in the source and are kept apart here.

Experiments:
[1] = molecular target: T1, His-human LIGHT (human); assay: cell-based or functional assay
T1 chain: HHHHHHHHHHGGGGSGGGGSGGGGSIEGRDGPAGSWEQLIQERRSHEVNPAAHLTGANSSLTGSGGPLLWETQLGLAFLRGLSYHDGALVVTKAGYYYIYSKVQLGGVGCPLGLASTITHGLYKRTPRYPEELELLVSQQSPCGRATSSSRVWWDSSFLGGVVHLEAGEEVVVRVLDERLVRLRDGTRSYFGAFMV

[2] = molecular target: T1, His-human LIGHT; assay: cell-based or functional assay
[3] = molecular target: T2, hFc-human LIGHT (human); assay: competition ELISA, LTβR-His coated, hFc-huLIGHT added
T2 construct: also called hFc-huLIGHT

[4] = molecular target: T3, His-cynomolgus monkey LIGHT (cynomolgus monkey); assay: ELISA, His-cynoLIGHT coated
T3 construct: also called His-cynoLIGHT
T3 chain: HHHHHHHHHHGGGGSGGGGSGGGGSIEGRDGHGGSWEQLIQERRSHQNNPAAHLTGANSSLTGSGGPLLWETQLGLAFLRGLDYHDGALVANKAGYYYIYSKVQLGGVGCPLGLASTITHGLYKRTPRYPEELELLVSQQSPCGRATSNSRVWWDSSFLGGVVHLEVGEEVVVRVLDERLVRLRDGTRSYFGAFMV

[5] = molecular target: T1, His-human LIGHT; assay: ELISA, His-huLIGHT coated
[6] = molecular target: T4, LIGHT on the surface of HEK293-LIGHT stable cells (human, UniProt O43557 1-240); assay: cell-based or functional assay
[7] = molecular target: T1, His-human LIGHT; assay: ELISA, His-huLIGHT coated
[8] = molecular target: T1, His-human LIGHT; assay: cell-based or functional assay
[9] = molecular target: T2, hFc-human LIGHT; assay: competition ELISA, LTβR-His coated, hFc-huLIGHT added; remark: listed apart in the source
[10] = molecular target: T1, His-human LIGHT; assay: cell-based or functional assay
[11] = molecular target: T1, His-human LIGHT; assay: cell-based or functional assay
[12] = molecular target: T4, LIGHT on the surface of HEK293-LIGHT …; assay: cell-based or functional assay; remark: listed apart in the source
[13] = molecular target: T1, His-human LIGHT; assay: cell-based or functional assay
[14] = molecular target: T1, His-human LIGHT; assay: SPR, Biacore 8K, antibody on CM5 chip, human LIGHT
[15] = molecular target: T1, His-human LIGHT; assay: ELISA, His-huLIGHT coated
[16] = molecular target: T2, hFc-human LIGHT; assay: competition ELISA, LTβR-His coated, hFc-huLIGHT added; remark: listed apart in the source

Row | IC50, LTβR NF-κB luciferase reporter, free LIGHT [1] [µg/mL] | IC50, HVEM NF-κB luciferase reporter, free LIGHT [2] [µg/mL] | IC50 [3] [pM] | EC50 [4] [pM] | EC50 [5] [µg/mL] | IC50, LTβR NF-κB luciferase reporter, HEK293-LIGHT cells [6] [µg/mL] | EC50 [7] [pM] | IC50, LTβR NF-κB luciferase reporter, free LIGHT [8] [pM] | IC50 [9] [pM] | IC50, proliferation of CD3+ T cells stimulated by plate-bound anti-CD3 and His-huLIGHT (CellTiter Glo) [10] [µg/mL] | IC50, LIGHT induced MMP-9 production in BEAS-2B bronchial epithelial cells [11] [µg/mL] | IC50, LTβR NF-κB luciferase reporter, HEK293-LIGHT cells [12] [pM] | IC50, HVEM NF-κB luciferase reporter, free LIGHT [13] [pM] | Kd [14] [pM] | koff [14] [s⁻¹] | kon [14] [M⁻¹ s⁻¹] | EC50 [15] [pM] | IC50 [16] [pM] | Binder
1 | 0.269 | 0.118 | 75.4 | 46.8 | 0.0662 | 5.39 | – | – | – | – | – | – | – | – | – | – | – | – | hum_LT-m37-1 (antibody, human IgG4, V domains shown, humanized from LT-m37) VH: QVQLVQSGAEVKKPGASVKVSCKASGYSFTGYFINWVRQAPGQSLEWIGRIYPYNVNTFYNQNFKGRATLTADKSTSTAYMELSSLRSEDTAVYYCGRGTHYYGSSGAMDYWGQGTLVTVSS VL: EIVLTQSPATLSVSPGERATLSCKASQNVGTAVAWYQQKPGQSPRLLIYSASNRYTGIPARFSGSGSGTEFTLTISSLQSEDFAVYFCQQYSSYPYTFGGGTKVEIK
2 | 0.293 | 0.0918 | 59.8 | 51.7 | 0.081 | 3.54 | – | – | – | – | – | – | – | – | – | – | – | – | hum_LT-m37-2 (antibody, human IgG4, V domains shown, humanized from LT-m37) VH: QVQLVQSGAEVKKPGASVKVSCKASGYSFTGYFINWVRQAPGQGLEWIGRIYPYNVNTFYNQNFKGRATLTADKSTSTAYMELSSLRSEDTAVYYCGRGTHYYGSSGAMDYWGQGTLVTVSS VL: EIVLTQSPATLSVSPGERATLSCKASQNVGTAVAWYQQKPGQSPRLLIYSASNRYTGIPARFSGSGSGTEFTLTISSLQSEDFAVYFCQQYSSYPYTFGGGTKVEIK
3 | – | – | – | 130 | – | – | 65.8 | 219 | 844 | 0.195 | 0.197 | 1280 | 120 | – | – | – | – | – | hum_LT-m37-15 (antibody, human IgG4, V domains shown, humanized from LT-m37) VH: QVQLVQSGAEVKKPGASVKVSCKASGYSFTGYFINWVRQAPGQGLEWIGRIYPYNVDTFYNQNFKGRATMTADKSTSTAYMELSSLRSEDTAVYYCGRGTHYYGSSGAMDYWGQGTLVTVSS VL: EIVLTQSPATLSVSPGERATLSCKASQNVGTAVAWYQQKPGQSPRLLIYSASNRYTGIPARFSGSGSGTEFTLTISSLQSEDFAVYYCQQYSSYPYTFGGGTKVEIK
4 | – | – | – | 104 | – | – | 46.4 | 182 | 1020 | 0.332 | 0.352 | 1860 | 161 | – | – | – | – | – | hum_LT-m37-14 (antibody, human IgG4, V domains shown, humanized from LT-m37) VH: QVQLVQSGAEVKKPGASVKVSCKASGYSFTGYFINWVRQAPGQSLEWIGRIYPYNVDTFYNQNFKGRATLTADKSTSTAYMELSSLRSEDTAVYYCGRGTHYYGSSGAMDYWGQGTLVTVSS VL: EIVLTQSPATLSVSPGERATLSCKASQNVGTAVAWYQQKPGQSPRLLIYSASNRYTGIPARFSGSGSGTEFTLTISSLQSEDFAVYYCQQYSSYPYTFGGGTKVEIK
5 | – | – | – | 104 | – | – | 42.2 | 227 | 867 | 0.311 | 0.358 | 867 | – | – | – | – | – | – | hum_LT-m37-13 (antibody, human IgG4, V domains shown, humanized from LT-m37) VH: QVQLVQSGAEVKKPGASVKVSCKASGYSFTGYFINWVRQAPGQGLEWIGRIYPYNVDTFYNQNFKGRVTMTADKSTSTAYMELSSLRSEDTAVYYCGRGTHYYGSSGAMDYWGQGTLVTVSS VL: EIVLTQSPATLSVSPGERATLSCKASQNVGTAVAWYQQKPGQSPRLLIYSASNRYTGIPARFSGSGSGTEFTLTISSLQSEDFAVYFCQQYSSYPYTFGGGTKVEIK
6 | – | – | – | 104 | – | – | 36.9 | 158 | 808 | 0.385 | 0.305 | 2550 | 179 | – | – | – | – | – | hum_LT-m37-16 (antibody, human IgG4, V domains shown, humanized from LT-m37) VH: QVQLVQSGAEVKKPGASVKVSCKASGYSFTGYFINWVRQAPGQGLEWIGRIYPYNVDTFYNQNFKGRVTMTADKSTSTAYMELSSLRSEDTAVYYCGRGTHYYGSSGAMDYWGQGTLVTVSS VL: EIVLTQSPATLSVSPGERATLSCKASQNVGTAVAWYQQKPGQSPRLLIYSASNRYTGIPARFSGSGSGTEFTLTISSLQSEDFAVYYCQQYSSYPYTFGGGTKVEIK
7 | 0.129 | 0.0677 | 74.8 | 52.7 | 0.0859 | 2.56 | – | – | – | – | – | – | – | 241 | 7.1e-05 | 295000 | – | – | hum_LT-m37-4 (antibody, human IgG4, V domains shown, humanized from LT-m37) VH: QVQLVQSGAEVKKPGASVKVSCKASGYSFTGYFINWVRQAPGQGLEWIGRIYPYNVNTFYNQNFKGRVTMTADKSTSTAYMELSSLRSEDTAVYYCGRGTHYYGSSGAMDYWGQGTLVTVSS VL: EIVLTQSPATLSVSPGERATLSCKASQNVGTAVAWYQQKPGQSPRLLIYSASNRYTGIPARFSGSGSGTEFTLTISSLQSEDFAVYFCQQYSSYPYTFGGGTKVEIK
8 | 0.16 | 0.062 | 77.1 | 51.4 | 0.0837 | 2.22 | – | – | – | – | – | – | – | 57.5 | 6.34e-05 | 1.1e+06 | – | – | hum_LT-m37-5 (antibody, human IgG4, V domains shown, humanized from LT-m37) VH: QVQLVQSGAEVKKPGASVKVSCKASGYSFTGYFINWVRQAPGQSLEWIGRIYPYNVNTFYNQNFKGRATLTADKSTSTAYMELSSLRSEDTAVYYCGRGTHYYGSSGAMDYWGQGTLVTVSS VL: EIVMTQSPATLSVSPGERATLSCKASQNVGTAVAWYQQKPGQSPRLLIYSASNRYTGIPARFSGSGSGTEFTLTISSLQSEDFAVYFCQQYSSYPYTFGGGTKVEIK
9 | 0.224 | 0.0518 | 75.3 | 58.8 | 0.0939 | 1.86 | – | – | – | – | – | – | – | 40.8 | 5.25e-05 | 1.29e+06 | – | – | hum_LT-m37-6 (antibody, human IgG4, V domains shown, humanized from LT-m37) VH: QVQLVQSGAEVKKPGASVKVSCKASGYSFTGYFINWVRQAPGQGLEWIGRIYPYNVNTFYNQNFKGRATLTADKSTSTAYMELSSLRSEDTAVYYCGRGTHYYGSSGAMDYWGQGTLVTVSS VL: EIVMTQSPATLSVSPGERATLSCKASQNVGTAVAWYQQKPGQSPRLLIYSASNRYTGIPARFSGSGSGTEFTLTISSLQSEDFAVYFCQQYSSYPYTFGGGTKVEIK
10 | – | – | – | – | – | – | – | – | – | – | – | – | – | – | – | – | 6.17 | 208 | hum_LT-m58-4 (antibody, human IgG4, V domains shown, humanized from LT-m58) VH: QVQLVQSGAEVKKPGASVKVSCKASGYTFIDHIMNWVRKAPGQGLEWMGRIYPVSGETNYNQKFMGRATFTVDRSTSTVYMELSSLRSEDTAVYYCGRGSYYWNAMDYWGQGTLVTVSS VL: EIVMTQSPATLSVSPGERATLSCKASQSVDFDGESYMNWYQQKPGQPPRLLIYSASNLESGIPARFSGSGSGTEFTLTISSLQSEDFAVYYCQQSIEDPWTFGQGTKLEIK
11 | – | – | – | – | – | – | – | – | – | – | – | – | – | – | – | – | 11.2 | 169 | hum_LT-m58-3 (antibody, human IgG4, V domains shown, humanized from LT-m58) VH: QVQLVQSGAEVKKPGASVKVSCKASGYTFIDHIMNWVRKAPGQGLEWMGRIYPVSGETNYNQKFMGRATFTVDRSTSTVYMELSSLRSEDTAVYYCGRGSYYWNAMDYWGQGTLVTVSS VL: DIVMTQSPDSLAVSLGERATINCKASQSVDFDGDSYMNWYQQKPGQPPKLLIYSASNLESGVPDRFSGSGSGTDFTLTISSLQAEDVAVYYCQQSIEDPWTFGQGTKVEIK
